Consider 20 sequences from a protein production outcome set (Wang et al. 2014).

This series in a line: label from the status in PepcDB records.
For “MTRLIQAIFILGFAAFVACTPKSAKSFAKAEVQYKQAEYQHAIENYQQSLSEGGDVAQCNYYIAESYRRSNRIQEAEPFYKKAIEAGIKDEEAHFFYANALKSVGNYEGAATQYKQYIKTGSNFDYINRAKKELENLKALQEVVEKETYYKVENIGQINSPEAEYAPYIYKNQLYFTSSRDAEKMHAATGTGFTNIHEYVFDGVEKFSGQSVPLSNAINTDGAHEASCILTKDGKTMIFARGNSGAKKGPQDVDLFKTTLQSDGKWSEPVMLAINDPAAWDACPALSLDEKTLYFASNREAEGALGNVDIYKATLDEKGEWSNPVNIGAPINTRGNDMYPSFNKDGKFYFASDGHPSLGSLDIFYVDPKESKIVNMGKPINTSYDDFGLVWKDSLEGYFASNRIDNGAKGDDDIYFVRNTFWDRRAKYYVDGTSFAKSKKNPKAILPNSIIYLLSCKGDTLKSIVSDTEGKFEFELKPDTCYYLAAHSDKYFAMPKSEWTPVKIATVPIKDLDIGDNSIKKKAEVMLVKKERIVIVRNILYDYDKWDIRPDAAVELDTMVMLMNANPEIQIELGSHTDERGSAEYNRVLAQKRAQAAVDYIIAHGISKDRIIAKGYGEDEPAIRNAKTEADHQTNRRTTFKVLNHFSDELEIKSGE”, the protein production result is on record as “failed”. Then “MLELAAGFICLTSLLTYVNYRFIGLPPTIGVMVTALMFSLLLQGLSFLGYPGLEDRVQQLIGQIDFGDLLMNWMLSFLLFAGALHVNLADLKSYRWPIGLLATFGVLIATTVIGALAYWIFALFGWHVSPLYCLLFGALISPTDPIAVLGVLRTANASKPLKTTIVGESLFNDGTAVVVFTVLLGIAQLGETPTVGETALLFVHEAVGGVLFGGLIGYAVYLMIKSIEQYQIEVMLTLALVIGGSAMASELHVSGPIAMVVAGLIIGNLGRNLAMNDMTRRYMDGFWELLDDMLNALLFALIGMELLLLPFSWQHLIAASLLAVAILLSRFVTVAPAILLLRRWRKVPHGTIRILTWGGLRGGVSVALALALPNGPERDLLLSITYIVVLLSILFQGLTIGKLVNAVTREPQAKDPAGH”, with “failed”. On to “MSLELARRLVEILLALALIQQSLEHLRGFRDERILFGARIVLAVLVLAGVAGPWPLVGLAGLSLLILHRFQGPYNGGSDRMGLLILWCLTLSSLAPTPILAELAFGYLGAQLTLSYFISGWVKVVNPDWRSGRALRDVFQFSAYPVAESLRGFAQRPGLLRAMSWGVMGFELAFPLTLLWPPALMVGLVVAGTFHLANACLFGLNRFFWTWLSAYPAILWLQGRVF”, for which the protein production entry is recorded as “failed”. Then “MPVNSILGVFAKSPIKPLQEHMDKVYDCASLLVPFFEATITGNWDDAVQIRKQISLAEKQGDSLKREIRLTLPSGLFMPVERTDLLELLTQQDKIANKAKDISGRVIGRQLLIPQALQVPFIAYLQRCIDAVGLAQQVINELDDLLEAGFRGREVDFVAKMINELDIIEEDTDDLQIQLRRQLFALESELNPVDVMFLYKTIEWVGGLADLAERVGSRLELMLARV”, with “not failed”.

Regarding “MEKHKIALISDWYFPKVGGIEYSIHALAKTLNQRGHKVHVITRCYPNIPEYNIRDGVAIIRIKSSPFPGQQRFLMPGAYKELYRLLKEGNYDIINSHGLDSPLGMIALIAARKLGIPSVVTNHSLVGHTPLRLYLYLAGKLLVGNADAVIAVSSAVEKDTKLMTKKPVYRIFNGMEYEESNPIAPLPFDRKGKLVIITVARMTKKKGVQNLIGLAPSFLKKYENLIFLMIGDGPLLKNLEKKVEESGLSENFYFTGEVPRKAVLEYLEQADIFALPSSDEAFGISILEAISKNVPVVAMNHSGISDIITHGVNGYLADNLSEFASCLQDLIEKPALRAEFARKAGEGLSNYDWNKIYEQTCRVYREVIYEKHHHNS”, the protein production result is reported as “failed”. Regarding “MHEYSVVSSLIALCEEHAKKNQAHKIERVVVGIGERSAMDKSLFVSAFETFREESLVCKDAILDIVDEKVELECKDCSHVFKPNALDYGVCEKCHSKNVIITQGNEMRLLSLEMLAE”, the protein production entry is recorded as “failed”. For the sequence “MTSTASSTDIRQGQAADEQWPSWQQRLRRFGYTAPPRTDVRDRLVPPFSEPSPRLWAAIGLRQEVADRVTRWSAWGGPLLVTLLAGLLRFWNLGSPKAVIFDETYYAKDAWALIHNGYEANWAKDANDLILQGNGHVAIPTDPAYVVHPPVGKYVIGLGEWLFGFTPFGWRFMTALLGTLSVLLLCRIGRRLFRSTFLGCLAGALMAVDGLHFVMSRTSLLDGVLMFFVLAAFGCLVVDRDRARARLAAALPADADGVVRPDAHTAETTRLGPRPWRWLAGLMLGLALGTKWNALYVMAAFCVMAVLWDVGSRRVAGARRPYAAVLRRDTGITFLATVPVAVATYLVSWTGWILSPANGSGGYFRNWAATDGKGGHWTWLPDWLRSLWHYEHEVYEFHVGLSSPHQYQSNPWSWLVAGRPVSYFYESPSPGKDGCPADAGEKCAREVLALGTPLLWWAACFAVLYVLWRWLFRRDWRAGAIACGIAAGWLPWMMYQERTIFYFYAVVFVPFLCLAVAMMIGAILGPPGSGERRRVVGAAGAGVLVLLIAWNFIYFWPLYTGTAIPIDDWRSRMWLDTWV”, the protein production result is “failed”. Then “MGIMPRKVLAIKNFKERFDLLPKLKGVIAEKQPDILVVVGNILKNEALEKEYERAHLARREPNRKVIHENEHYIIETLDKFFREIGELGVKTFVVPGKNDAPLKIFLRAAYEAETAYPNIRVLHEGFAGWRGEFEVIGFGGLLTEHEFEEDFVLKYPRWYVEYILKFVNELKPRRLVTIFYTPPIGEFVDRTPEDPKHHGSAVVNTIIKSLNPEVAIVGHVGKGHELVGNTIVVNPGEFEEGRYAFLDLTQHKIKLEQFS”, with “not failed”; and “VWICTKCVRCKSCGSTTPGKGWDAQWSHDFSLCHDCAKLFAKGNFCPLCDKCYDDDDYESKMMQCGKCDRWVHSKCENLSDEMYEILSNLPESVAYTCVNCTERHPAEWRLALEKELQISLKQVLTALLNSRTTSHLLRYRQAAKPPDLNPETEESIPSRSSPEGPDPPVLTEVSKQDDQQPLDLEGVKRKMDQGNYTSVLEFSDDIVKIIQAAINSDGGQPEIKKANSMVKSFFIRQMERVFPWFSVKKSRFWEPNKVSSNSGMLPNAVLPPSLDHNYAQWQEREENSHTEQ”, with “failed”; and “MVRIRWFFIRHAESEANVVERWRIAGRSEAARLTERGERQARVVGEAVAIRLEQVLRVDGGDAGGVSGDAGRRRVLAPVAFTSPLLRARQTAALVLEQVAQPVKLEPVDDLAEVYQGLWEDALRSEVHTPETLQAMARNPYEFRAPGGEAQADVERRVLRAVSRMSQRVLSLLSLELEENEQTDVIVLVFTHGYVCKCLIRSVLDASPHLTGQIQVDNGALVELWLEPAAQQGALTSAAELGMWTVLRINDTWGQLTASMR”, with “failed”.

Consider “MREEHSPVRDGRRSGGLRSLIDPRFLSSFALNDGGSISGRRSSYLKLPPQGRIKLSVVKLNGSLFDVEVAKDCSVAELKRAVEQVFTISPLEGHGMISWSHVWGHFCLCYRDQRLVNDKTSIRYLGLNDGDQLHFVRHLSIDHSPMNKRSKSPSCKRYLELDVSSIVNEIQIQNQNQNGVDDVAEKCYPGAQDELPAAESRLVNLIKGWLPYAGRWGVSRKGPECRSGPSRFSLKHFGGRPKM”, for which the protein production result is given as “failed”. Regarding “IDPVMVAAFEGWNDAGDAASTAVAHLDREWKGEVFAALDAEDYYDFQVNRPTVWLDGGVRKITWPTTRLSVVRVGGEKPRDLVLVRGIEPSMRWRSFCNELLAFAHELGVELVVVLGALLGDTPHTRPVPVSGVTSDPDLARTMDLEETKYEGPTGIVGILQEACTHAGVPAVSLWAAVPHYVSQPPNPKATLALLNRLEDLIDVRIPLGELPEDARAWQVGVDQLAAEDSEVAEYVQSLEEARDTA”, the protein production entry was “not failed”.

In the case of “MAEEEVGNSQRQSEEIEAMAAIYGEEWCVIDENAKIFCIRVTDFMDDPKWTLCLQVMLPSEYPGTAPPSYQLNAPWLKGQERADLSNSLEEIYVHNMGESILYQWVEKIRDALIQKSQITEPDPDVKKKTEEVEVESEEDPILEHPPENPVKTLDLKISEETQPETEELPPVAHGVPITDRRSTFQAHVAPVVCPEQVKLVLAKLYENKKIASATHNIYAYRIFCEDKQTFLQDCEDDGETAAGGRLLHLMEILNVKNVMVVVSRWYGGILLGPDRFKHINNCARNILVEKNFTNTPDESTKNLGKKKVKKDKKKNDH”, the protein production entry is “failed”. With “MRVLHETTQELANWQYYFAIAVFLITYAIIISEKINRAVIALLGAALMVIMGVVDLHNAFTKHIEWGTITLLIGMMILVNITSKSGVFQYVAIKAAKGAQGNPIKILISLSLLTALGSAFLDNVTTVLLVVPVTLSITRILQVNPVPYLLSEIIFSNIGGTATLIGDPPNIMIGSANKHLDFNAFLLNLAPIVIIIIAVTAAILYFMYRKQLIADPVQVKKLMSLDEKQYIKDPVLMKKSLTVLGLTIVGFMTHSIFHVDAAIIALTGATVLMLIGVKEHEIEEVFASVEWVTIFFFAGLFVLVGGLIDIGLIKMLAQKVIGITGGDISYASILILWVSGIASATIDNIPFVATMIPLINDMAVGLGLSPADAQIDVLWWALALGACLGGNGTLIGASANVIVAGIASREGHKFSYMDFLKVGFPIMIVSLIISHIYIYVRYLM”, the protein production result was “failed”. As for “LSRVGSAEWNLLTDEATWSGELYQILGRDPAAPPLTLDELPSFVHDEDRPRLTAMVTDCLIDAKPIDGEFRIVRPDGGVRTVHMMGEPVLDAHGSTASMWAVLRDVSE”, the protein production entry is recorded as “not failed”. On to “MKWSEISIHTTEEAVEAVSHILHEAGASGVAIEDPAELTKEREQQYGEIYALNPDEYPAEGVLIKAYFPQTDSLHETIAGVKSSIDVLPSYDIEIGTGNITVNEVNEEDWATAWKKYYHPVQISDTFTIVPTWEEYTPSSPEEKIIELDPGMAFGTGTHPTTTMCIRALEKTVQPGDTIIDVGTGSGVLSIAAAKLGASSVQAYDLDPVAVESAEMNVRLNKTDDVVSVGQNSLLEGIEGPVDLIVANLLAEIILLFPEDAARVVKSGGLFITSGIIAAKEKVISEALEKAGFTIEEVLRMEDWVAIIARNA”, for which the protein production entry is given as “failed”. For “SYLPKHESVTLKNGLQVVSVPLENKTGVIEVDVLYKVGSRNETMGKSGIAHMLEHLNFKSTKNLKAGEFDKIVKRFGGVSNASTSFDITRYFIKTSQANLDKSLELFAETMGSLNLKEDEFLPERQVVAEERRWRTDNSPIGMLYFRFFNTAYVYHPYHWTPIGFMDDIQNWTLKDIKKFHSLYYQPKNAIVLVVGDVNSQKVFELSKKHFESLKN”, the protein production entry was “failed”.

Turning to “TEKTALHLRARRNFRDFRGVSRRTGEEWLVTVQDTEAHVPDVHEEVLGVVPITTLGPHNYCVILDPVGPDGKNQLGQKRVVKGEKSFFLQPGEQLEQGIQDVYVLSEQQGLLLRALQPLEEGEDEEKVSHQAGDHWLIRGPLEYVPSAKVEVVEERQAIPLDENEGIYVQDVKTGKVRAVIGSTYMLTQDEVLWEKELPPGVEELLNKGQDPLADRGEKDTAKSLQPLAPRNKTRVVSYRVPHNAAVQVYDYREKRARVVFGPELVSLGPEEQFTVLSLSAGRPKRPHARRALCLLLGPDFFTDVITIETADHARLQLQLAYNWHFEVNDRKDPQETAKLFSVPDFVGDACKAIASRVRGAVASVTFDDFHKNSARIIRTAVFGFETSEAKGPDGMALPRPRDQAVFPQNGLVVSSVDVQSVEPVDQRTRDALQRSVQLAIEITTNSQEAAAKHEAQRLEQEARGRLERQKILDQS”, the protein production entry is “failed”.

“IEPEYFGEDAAENILIGWGSLEGAIKEAVNDLNKEGKEKYAALIFGDVWPLPEKLLREKASKAKTLIDVEQNAQGQLADIIREGTGIEVDKKILKYDGRPIMASYIVGRIKE”: the protein production result is “not failed”. Then “MFHAAFMEERVFSDRGSMRNACSSIEYDGCRQGQSGPLLEEKEVKRKLFGALALVAMLAAPALAEAATRGFATANVNMRSGPSTAYPAVVVIPVGAPLTVHGCLSDTPWCDVSFVNGRGWVAGRYIQTTFRQNRVYVEPRYYRDLGVPVITFEAGRYWDRYYRDRDFYRERDRWRRPPPSGGYWNAPPPSAGWDRPRPRDDWRDGRRDDGRRDEWRDPRQGGPNDGRWERRYGDWNQGDRNQDRPRRDDDRRRWEDENRDRNRDRDSNRDGNRDRPQNQYDGQRGQLEGQPRPPAPAPDAPLQGCIIGSPGCAQRLEHHHHHH”, with “not failed”.
